Our source for the OD value (450 nm) values is patent EP4644420A1 (Unicet Biotech. LLC, dated 2025).

Several values for one entry are separate records, joined by “and”; a condition that tells them apart may be missing. Identical values can stand only once.

Experiment [1] addresses B7-H3 antigen protein (UniProt Q5ZPR3). As to the kind of experiment: blocking ELISA, coated B7-H3 10 µg/mL; no blocker (m2Y31 0 µg/mL); 8H9 2 µg/mL. On the technique in general: ELISA stands for enzyme-linked immunosorbent assay.
For experiment [2] the target is unchanged. Nature of the experiment: blocking ELISA, coated B7-H3 10 µg/mL; no blocker (m1B4 0 µg/mL); 8H9 2 µg/mL.
The target is the same in experiment [3]. As to the kind of experiment: blocking ELISA, coated B7-H3 10 µg/mL; no blocker (m2Y31 0 µg/mL); hu2Y31 2 µg/mL.

B7-H3 antigen protein, sequence (Q5ZPR3 29-461): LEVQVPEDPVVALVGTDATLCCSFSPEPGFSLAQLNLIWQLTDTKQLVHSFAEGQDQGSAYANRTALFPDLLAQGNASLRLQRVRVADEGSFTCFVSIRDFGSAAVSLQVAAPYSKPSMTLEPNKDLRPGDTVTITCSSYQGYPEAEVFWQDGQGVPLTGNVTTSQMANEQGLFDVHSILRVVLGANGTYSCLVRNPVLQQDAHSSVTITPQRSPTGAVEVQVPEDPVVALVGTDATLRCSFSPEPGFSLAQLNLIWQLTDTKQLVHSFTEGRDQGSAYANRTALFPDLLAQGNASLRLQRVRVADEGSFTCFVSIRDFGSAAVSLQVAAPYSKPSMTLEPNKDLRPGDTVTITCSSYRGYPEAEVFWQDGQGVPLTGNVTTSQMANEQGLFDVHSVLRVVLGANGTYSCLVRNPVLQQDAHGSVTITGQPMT

B1: antibody 8H9 (antibody, from another filing, V domains shown)
VH: QVQLQQSGAELVKPGASVKLSCKASGYTFTNYDINWVRQRPEQGLEWIGWIFPGDGSTQYNEKFKGKATLTTDTSSSTAYMQLSRLTSEDSAVYFCARQTTATWFAYWGQGTLVTVSA
VL: DIVMTQSPATLSVTPGDRVSLSCRASQSISDYLHWYQQKSHESPRLLIKYASQSISGIPSRFSGSGSGSDFTLSINSVEPEDVGVYYCQNGHSFPLTFGAGTKLELKR
As for B1, the OD value (450 nm) was 2.36 OD450 in experiment [1]; 3.38 OD450 and 3.39 OD450 in experiment [2].

B2: humanized 2Y31 antibody (antibody, V domains shown)
VH: EVQLVESGGGLVKPGGSLKLSCAASGFAFSRYDMSWVRQSPEKRLEWVATISDDGRHTYDRDSVKGRFTISRDNAKNTLYLQMSSLRSEDTALYYCVRHRAITTARFDYWGQGTTVTVSS
VL: DIVMTQSPSSLSVSLGDTVSITCKASQDIYSNIGWLQQLPGQSFKGLIYHGTNLEDGVPSRFSGSGSGTDYSLTISGLESEDFADYYCLQYVQFPYTFGGGTKLEIKA
As for B2, the OD value (450 nm) in experiment [3] is 2.07 OD450 and 2.02 OD450.
